# In US20070265201A1, “INHIBITORS OF IN[…] TRA[…] FROM HCMV PROTEIN IE2” (priority 2005, published 2007):
# B1: GFP 291-364 (protein)
# chain: SSHHGRGGFGGAASSSLLSCGHQSSGGASTGPRKKKSKRISELDNEKVRNIMKDKNTPFCTPNVQTRRGRVKID
# modifications: left off: large carriers
# Tested on: C/EBPβ
# Assay: Specificity control: C/EBPβ expression by western blot of transfected HeLa-S3 lysates
# Format: cell-based
# Settings: HeLa-S3 cell lysates, FIG. 4C
# Procedure: FIGS. 4A-4D. […] FIG. 4D is another specificity control showing that a control GFP expression vector was not affected by either IE2 291-343 or IE2 291-364. HeLa-S3 cells were transfected with both a GFP expression vector and cotransfected with either E2 291-343 or IE 291-364 expression vectors and GFP expression analyzed 24 hours later by a fluorescence activated cell sorter.
# Because the IE2 291-364 region was previously mapped as one of three TBP binding sites on IE2, it was possible that the inhibitory function was due to interaction with TBP. To exclude this possibility, the expression of two other genes that contain TATA boxes in their promoters were investigated. First, an observed the expression of C/EBPβ from the expression vector by western blot (FIG. 4C) was conducted. […] Second, His-tagged inhibitors were cotransfected with ev GFP and the geometric mean brightness of transfected cells measured by flow cytometry (FIG. 4D). […] It is believed that the basis for the interaction is localized to residues 315-328 of the IE2 molecule because a variant of IE2 291-364 missing the 315-328 region (delA) lacks binding to Spi-1 ETS domain in a GST fusion pull-down assay (FIG. 5).
molecule,measurement,value
B1,effect on expression of C/EBPβ protein (western blot),no reduction
